Results from US9120851B2, “Human antibodies to human angiopoietin-like protein 4” (Regeneron Pharmaceuticals, Inc., priority 2009, dated 2015).

Assays:
[1] = Pharmacokinetic clearance in wild-type and hANGPTL4(+/+) mice, sandwich ELISA; assay type: in vivo, mouse; conditions: 1 mg/kg s.c.
Experimental: Pharmacokinetic clearance rates of anti-hANGPTL4 antibodies H4H268P2 and H4H284P were determined in wild-type mice and in transgenic mice expressing human ANGPTL4 [hANGPTL4(+/+) mice]. The strain background for both wild-type and transgenic mice was C57BL6 (75%) and 129Sv (25%). Separate cohorts consisting of 5 mice each of either wild-type or hANGPTL4(+/+) mice received subcutaneously (s.c.) 1 mg/kg of H4H268P2, H4H284P, or an isotype-matched (hIgG4) control with irrelevant specificity. Blood samples were collected at 0 hour, 6 hours, 1 day, 2 days, 3 days, 4 days, 7 days, 10 days, and 15 days, 22 days, and 30 days after the injection. Serum levels of human antibodies were determined by a sandwich ELISA. Briefly, a goat polyclonal anti-human IgG (Fc-specific) capture antibody (Jackson ImmunoResearch, PA) was coated in 96-well plates at a concentration of 1 μg/mL and incubated overnight at 4° C. After the plates were blocked with BSA, serum samples in a six-point serial dilution and reference standards of the respective antibody in a twelve-point serial dilution were added to the plate and incubated for one hour at room temperature. After washing with a suitable washing buffer, captured human antibodies were detected using the same goat polyclonal anti-human IgG (Fc-specific) antibody conjugated with horse radish peroxidase (HRP) (Jackson ImmunoResearch, PA) and developed by standard colorimetric response using tetramethylbenzidine (TMB) substrate, measuring absorbance at 450 nm in a plate reader. Concentrations of human antibodies in serum were determined using the reference standard curve generated for the same sample plate.

[2] = tested on: humanized ANGPTL4×ApoE null mice; assay: Serum TG levels in humanized ANGPTL4 x ApoE null mice; assay type: in vivo, mouse
Experimental: The effect of H4H268P2 on circulating TG levels was further studied in humanized ANGPTL4 mice crossed to ApoE null mice. The ApoE null mouse model is known as a highly atherogenic and hyperlipidemic model with the majority of cholesterol and TG circulating in VLDL particles due to impaired VLDL remnant clearance. Humanized ANGPTL4×ApoE null mice were pre-bled 7 days before the experiment and put into 2 groups of six mice each. Antibodies H4H268P2 and Control Ab were administered at 10 mg/kg by subcutaneous injection. Mice were bled after 4 hours of fasting on days 1, 4, 7, 11 and 17 after antibody injection and TG levels were determined in the serum by ADVIA® 1800 Chemistry System (Siemens). TG reductions shown in FIG. 4 are expressed as a percent of TG levels compared to Control Ab.

[3] = tested on: obese rhesus monkeys (Macaca mulatta); assay: Phase II pilot PK/PD study in obese rhesus monkeys; assay type: in vivo, rhesus monkey (Macaca mulatta); conditions: 10 mg/kg IV
Experimental: Phase II: In the second non-GLP pharmacokinetics/pharmacodynamic (PK/PD) study only H4H268P2 was administered as a single bolus intravenous (IV) injection to eight obese rhesus monkeys (Macaca mulatta). The step of pre-dosing vehicle injection was omitted in this study. Three baseline assessments were taken at days −7, −3 and 0 of the study and all eight monkeys received H4H268P2 at 10 mg/kg by IV on day 0. Serum samples were collected from the baseline period through day 35 post-dosing and assessed for serum lipid levels by ADVIA® 1800 Chemistry System (Siemens). Animals were grouped for data analysis according to average baseline TG levels so as to prospectively predict the effect: A. TG<150 mg/dL (n=3); B. 150 mg/dL<TG<500 mg/dL (n=4); and C. TG>1000 mg/dL (n=1).

[4] = animals with baseline 150 mg/dL<TG<500 mg/dL

B1: H4H268P2: IgG4 version of H1H268P with a single amino acid substitution in framework region 1, HCVR/LCVR SEQ ID NOs 487/44 (antibody, V domains shown)
VH: QVQLQQSGAGLLKPSETLSLTCTVYGGSFSIHHWTWIRHPPGKGLEWIGEINHRGSTNYNPSLKSRVTISIDTSKNQFSLKLSAVTAADTAVYYCARGLRFLDWLSSYFDYWGQGTLVTVSS
VL: DIQMTQSPSSLSASVGDRVTITCRASQGISDYLAWYQQKPGKVPNLLIYAASALQSGVPSRFSGSGSGTDFTLTISSLQPEDVATYYCQNYNTAPLTFGGGTKVEIK
modifications: IgG4 constant region
Question: For B1, which Cmax ([1]; Wild-type mice) is on record?
Answer: 18400 ng/mL

Question: And the Cmax ([1]; hANGPTL4(+/+) mice)?
Answer: 13300 ng/mL

Question: What about the AUC ([1]; hANGPTL4(+/+) mice, over the 30-day period) of the same molecule?
Answer: 37000 ng·h/mL

Question: What about the “TG reduction compared to Control Ab” value ([2]; all 17 days, 10 mg/kg s.c.) of the same molecule?
Answer: more than 42%

Question: What about the “greatest TG reduction compared to Control Ab” value ([2]; day 7, 10 mg/kg s.c.) of the same molecule?
Answer: ~50%

Question: And the “HDL-C, in words” value [3, 4]?
Answer: increased

Question: And the “LDL-C or Total-C, in words” value [3, 4]?
Answer: no effect

Question: And the “decrease in TG levels from baseline” value [3, 4]?
Answer: 50-68%

Question: What about the “response of fasting TG, in words” value ([3]; animals with baseline TG<150 mg/dL (normal TG levels)) of the same molecule?
Answer: largely unresponsive

Question: And the “TG level, in words” value ([3]; individual animal with baseline TG >1000 mg/dL)?
Answer: dramatic and rapid drop in TG level
